Measurements as given in the Human Domainome abundance scans (Beltran et al. 2025).

B1: POU domain, class 4, transcription factor 1, residues 266 to 347; numbered along this chain, Q01851 (parent)
chain: RELEAFAERFKQRRIKLGVTQADVGSALANLKIPGVGSLSQSTICRFESLTLSHNNMIALKPILQAWLEEAEGAQREKMNKP
B2: Syntaxin-binding protein 4, residues 493 to 538; numbered along this chain, Q6ZWJ1 (parent)
chain: LDMDCLPYGWEEAYTADGIKYFINHVTQTTSWIHPVMSVLNLSRSE

Variants of: B1
Assay: abundance fitness (aPCA) (normalised: wild type 0, dead -1); higher = more abundant; growth selection in yeast, the domain comes from the species named
Conditions: Homo sapiens

Abundance fitness, by site and new letter:
E77: A -0.044; H -0.092; F -0.16; L -0.053; W -0.145; V -0.005; G -0.025; C -0.088; P -0.08; T -0.064; M 0.021; Q -0.02; S -0.024; Y -0.009; I -0.063; D 0.006
A74: E 0.025; C 0.012; M -0.016; F -0.035; K -0.009; V -0.005; S 0.005; L 0.006; G -0.044; D -0.027; P -0.05; R -0.008; N -0.019; Y 0.002; T -0.013; Q -0.029; W -0.137; H -0.009
N80: S 0.051; P 0.073; T -0.007; E 0.078; F -0.043; I -0.121; Q 0.091; A 0.117; D -0.007; Y -0.037; L -0.026; K -0.001; C 0.064; R -0.032; G -0.003; V 0.098; W -0.089; M -0.004; H 0.019
E72: D -0.259; Y -0.138; H -0.456; R -0.421; T -0.244; C -0.416; M -0.349; G -0.267; S -0.229; P -0.348; W -0.415; I -0.179; K -0.518; Q -0.21; L -0.431; N -0.35; V -0.35
K78: R 0.047; L -0.012; F 0.003; S -0.092; A 0.089; W 0.007; E 0.035; D -0.153; P -0.048; M 0.072; V -0.019; I -0.026; G -0.036; Y -0.106; Q -0.045; T -0.273
G73: D -0.105; M -0.065; Y 0.144; I 0.121; H -0.068; T 0.063; E 0.125; C -0.013; W -0.205; F -0.056; V 0.071; N 0.003; K -0.046; R -0.054; L 0.056; Q 0.043; P -0.259; S -0.027; A 0.015
E70: Y -0.145; W -0.311; V -0.176
P82: Q 0.01; M 0.008; L -0.123; G -0.011; E -0.005; W -0.116; K -0.047; D 0.019; A 0.086; F -0.105; T -0.001; Y 0.095; V -0.053
K81: P -0.075; T 0.03; W 0.027; V -0.047; F 0.198; I -0.112; Q -0.042; H -0.432; C 0.1; G 0.021; A 0.148; Y -0.224; M -0.059; D -0.024; S -0.016; L 0.043
Q75: T -0.033; H 0.041; P -0.063; I -0.051; C -0.015; F -0.043; M -0.025; V -0.025; N -0.061; L -0.001; R -0.028; D -0.045; W -0.077; E -0.01; Y -0.085; A 0
R76: C 0.012; Y -0.124; G 0.007; M 0.044; W -0.056; Q -0.003; F -0.032; K -0.006; A 0.03; D -0.015; E 0.016; P -0.002; T 0.008; N 0.026; L 0.012; I -0.029; V -0.009; H -0.003
A71: R -0.051; K 0.072; N 0.044; H -0.146; S -0.079; P -0.588; I -0.18; Q -0.051; Y -0.353; M -0.005; D -0.572; W -0.186; T 0.062; E -0.062; F -0.289; G -0.379
M79: F 0.024; P 0.029; A 0.004; I 0.008; K 0.039; Q -0.03; R -0.025; S -0.024; D -0.022; V 0.007; N 0.023; L 0.001; T -0.021; Y -0.011; W -0.015; G 0.009

Variants of: B2
Assay: as above
Conditions: Homo sapiens

Abundance fitness, by site and new letter:
P7: A -0.646; H -0.669; I -0.984; L -0.711; Q -0.903; F -0.616; K -0.649; G -0.719; M -0.793; R -0.782; W -0.629; T -0.483; N -0.714; S -0.834; V -0.742; E -0.711
C5: I -0.113; N -0.254; S 0.142; Y -0.268; W -0.533; A 0.238; R -0.18; P -0.291; K 0.076; H -0.06; G -0.04; E 0.234; V -0.155; D 0.321; F -0.11; M -0.173
M3: Y -0.458; D -0.103; L -0.036; F -0.069; E 0.144; H -0.117; C 0.117; T 0.287; I -0.425; N 0.354; W -0.692; Q 0.065; A -0.058; R 0.027; G -0.084
L1: S 0.28; R -0.874; M 0.148; H -0.269; E 0.068; N -0.101; W -0.334; G -0.525; T -0.004; Y -0.198; K 0.331; F -0.163
D4: A -0.561; H -0.835; P -0.511; V -0.766; W -0.499; K -0.543; R -0.545; S -0.221; L -0.638; E -0.16; I -0.639; G -0.348; F -0.613; T -0.535; Y -0.863; C -0.354; N -0.098
Y8: S 0.138; M -0.292; C -0.425; H -0.094; E 0.326; A 0.198; Q -0.119; R -0.34; K 0.109; W -0.371; F -0.258; I -0.08; L -0.367; G -0.028; D 0.326; P 0.157; T -0.122
D2: T -0.334; F -0.849; N -0.388; K -0.269; L -0.424; V -0.576; R -0.603; A -0.445; M -0.334; Q -0.48; P -0.985; E -0.206; C -0.699; G -0.366; S -0.478; I -0.698
L6: P -0.608; S -0.816; M -0.692; T -0.737; G -0.754; H -0.844; F -0.604; R -0.644; Y -0.709; K -0.266; V -0.511; Q -0.817; E -0.541; W -0.922; I -0.965; N -0.375; A -0.707; D -0.405
G9: A -0.803; D -0.604; E -0.184; C -0.892
